Legend:
[1] = biological target: HLA-B*15:17; assay: IEDB peptide-MHC binding, purified MHC/direct/fluorescence; filed as Kd, often an IC50 or EC50 that approximates it; ≥ and ≤ were set here for values at or beyond the usual limits of such assays
[2] = biological target: HLA-B*57:01; assay: as above
[3] = biological target: HLA-B*58:01; assay: as above
[4] = biological target: HLA-B*46:01; assay: IEDB peptide-MHC binding, purified MHC/competitive/fluorescence; filed as Kd, often an IC50 or EC50 that approximates it; ≥ and ≤ were set here for values at or beyond the usual limits of such assays
[5] = biological target: HLA-A*68:02; assay: IEDB peptide-MHC binding, purified MHC/competitive/radioactivity; filed as Kd, often an IC50 or EC50 that approximates it; ≥ and ≤ were set here for values at or beyond the usual limits of such assays
[6] = biological target: HLA-A*02:01; assay: as above
[7] = biological target: HLA-A*02:02; assay: as above
[8] = biological target: HLA-A*02:03; assay: as above
[9] = biological target: HLA-A*02:06; assay: as above
[10] = biological target: HLA-B*40:02; assay: as above
[11] = biological target: HLA-B*18:01; assay: as above
[12] = biological target: HLA-B*44:03; assay: as above
[13] = biological target: HLA-B*40:01; assay: as above
[14] = biological target: HLA-B*44:02; assay: as above
[15] = biological target: HLA-B*45:01; assay: as above
[16] = biological target: HLA-B*08:01; assay: as above; details: source organism: Vaccinia virus WR
[17] = biological target: HLA-A*30:01; assay: as above; details: source organism: Vaccinia virus WR
[18] = biological target: HLA-B*15:01; assay: as above
[19] = biological target: HLA-B*15:03; assay: as above
[20] = biological target: HLA-A*32:01; assay: as above
[21] = biological target: HLA-A*11:01; assay: IEDB peptide-MHC binding, purified MHC/competitive/fluorescence; ≥ and ≤ were set here for values at or beyond the usual limits of such assays
[22] = biological target: HLA-A*69:01; assay: IEDB peptide-MHC binding, purified MHC/direct/fluorescence; filed as Kd, often an IC50 or EC50 that approximates it; ≥ and ≤ were set here for values at or beyond the usual limits of such assays; details: source organism: Giardia lamblia ATCC 50803
[23] = biological target: HLA-A*26:01; assay: as above; details: source organism: Giardia lamblia ATCC 50803
[24] = biological target: HLA-A*11:01; assay: as above; details: source organism: Giardia lamblia ATCC 50803
[25] = biological target: HLA-A*02:01; assay: as above; details: source organism: Giardia lamblia ATCC 50803
[26] = biological target: HLA-B*07:02; assay: as above; details: source organism: Giardia lamblia ATCC 50803
[27] = biological target: HLA-A*01:01; assay: as above; details: source organism: Giardia lamblia ATCC 50803
[28] = biological target: HLA-B*40:01; assay: as above; details: source organism: Giardia lamblia ATCC 50803
[29] = biological target: HLA-A*31:01; assay: as above; details: source organism: Giardia lamblia ATCC 50803
[30] = biological target: HLA-B*44:02; assay: as above; details: source organism: Giardia lamblia ATCC 50803
[31] = biological target: HLA-B*08:01; assay: as above; details: source organism: Giardia lamblia ATCC 50803
[32] = biological target: HLA-A*03:01; assay: as above; details: source organism: Giardia lamblia ATCC 50803
[33] = biological target: HLA-B*15:01; assay: as above; details: source organism: Giardia lamblia ATCC 50803
[34] = biological target: HLA-B*27:05; assay: as above; details: source organism: Giardia lamblia ATCC 50803
[35] = source organism: Brucella melitensis
[36] = source organism: Trypanosoma cruzi
[37] = source organism: Lymphocytic choriomeningitis virus (strain Armstrong)
[38] = source organism: Vaccinia virus WR
[39] = source organism: Mammarenavirus lassaense
[40] = source organism: Mammarenavirus brazilense
[41] = source organism: SARS coronavirus Tor2
[42] = source organism: Mammarenavirus guanaritoense
[43] = source organism: Lassa virus Josiah
[44] = source organism: Vaccinia virus Copenhagen
[45] = source organism: Mammarenavirus juninense
[46] = source organism: Giardia lamblia ATCC 50803

In the case of IAASNLEQF, the Kd [1, 35] is reported as 22.6 nM, the Kd [2, 35] is reported as 202 nM and the Kd [3, 35] is reported as 50 nM. The Kd ([4]; source organism: Brucella melitensis bv. 1 str. 16M) was 47.9 nM.

Sequence GLLPLLLLLG has a Kd [5, 36] of 7010 nM, a Kd [6, 36] of 2.69 nM and a Kd [7, 36] of 79.2 nM. For the same sequence, the Kd [8, 36] was 109 nM and the Kd [9, 36] was 15.3 nM.

In the case of ADQAIANGV, the Kd [10, 37] is reported as 3330 nM, the Kd [11, 37] is reported as ≥ 33800 nM and the Kd [12, 37] is reported as ≥ 30200 nM. For the same sequence, the Kd [13, 37] was ≥ 73500 nM, the Kd [14, 37] was 14900 nM and the Kd [15, 37] was ≥ 20700 nM.

ISWMMKLGI was tested, and the Kd [16] was 4840 nM, the Kd [17] was 6580 nM and the Kd [18, 38] was 546 nM. The Kd [19, 38] was 404 nM and the Kd [20, 38] was 42.1 nM.

With SEGNATPGGY the Kd [10, 39] was ≥ 70800 nM, the Kd [11, 39] was 18700 nM and the Kd [12, 39] was 7250 nM. The Kd [13, 39] was ≥ 64200 nM, the Kd [14, 39] was 19500 nM and the Kd [15, 39] was ≥ 70000 nM.

In the case of ISAFPKNDF, the Kd [19, 38] is reported as 663 nM.

FSNFSTSHI was tested, and the Kd [16] was 3110 nM, the Kd [17] was 7500 nM and the Kd [18, 38] was 110 nM. The Kd [19, 38] was 510 nM and the Kd [20, 38] was 18400 nM.

In the case of LMYILGTYG, the Kd [16] is reported as 951 nM, the Kd [17] is reported as 3750 nM and the Kd [18, 38] is reported as 62 nM. For the same sequence, the Kd [19, 38] was 125 nM and the Kd [20, 38] was ≥ 23300 nM.

In the case of KLTKDFSAL, the Kd ([6]; source organism: Homo sapiens) is reported as 550 nM, the Kd ([7]; source organism: Homo sapiens) is reported as 20.5 nM and the Kd ([8]; source organism: Homo sapiens) is reported as 34.2 nM.

For QKFPYEGGK, the IC50 ([21]; source organism: Vaccinia virus) was ≥ 140000 nM.

FKAKWLTPF showed a Kd [19, 38] of 0.0731 nM.

In the case of SLFEGIDFYT, the Kd ([6]; source organism: Homo sapiens) is reported as 1.1 nM.

IDNQKLSYL was tested, and the Kd [10, 40] was 6520 nM, the Kd [11, 40] was ≥ 77500 nM and the Kd [12, 40] was ≥ 78100 nM. For the same sequence, the Kd [13, 40] was ≥ 76100 nM, the Kd [14, 40] was ≥ 77900 nM and the Kd [15, 40] was 17700 nM.

Work on LSTTRFQSM yielded a Kd [16] of 3970 nM, a Kd [17] of 1080 nM and a Kd [18, 38] of 5820 nM. The Kd [19, 38] was 2500 nM and the Kd [20, 38] was 9770 nM.

TQALQLFLR was tested, and the IC50 ([21]; source organism: Sudan ebolavirus) was 2530 nM.

EIFSAWISH was tested, and the IC50 ([21]; source organism: Variola virus) was 22600 nM.

LGGILPWTK gave an IC50 [21, 38] of 536 nM.

With VEFHLDGEVL the Kd [10, 41] was 140 nM, the Kd [11, 41] was 3230 nM and the Kd [12, 41] was 935 nM. The Kd [13, 41] was 0.877 nM, the Kd [14, 41] was 3760 nM and the Kd [15, 41] was 6950 nM.

ELEQTYHAKL was tested, and the Kd ([5]; source organism: Homo sapiens) was 9730 nM, the Kd ([6]; source organism: Homo sapiens) was ≥ 40200 nM and the Kd ([7]; source organism: Homo sapiens) was 2840 nM. The Kd ([8]; source organism: Homo sapiens) was ≥ 94300 nM and the Kd ([9]; source organism: Homo sapiens) was ≥ 71200 nM.

In the case of FSALPTNEF, the Kd [19, 38] is reported as 0.13 nM.

YVLPRRGPRL was tested, and the Kd ([6]; source organism: Hepatitis C virus subtype 3a) was 3570 nM.

FLTYLDVSV was tested, and the Kd ([6]; source organism: Homo sapiens) was ≤ 1 nM.

In the case of LENAQPGLL, the Kd [10, 42] is reported as 182 nM, the Kd [11, 42] is reported as 10700 nM and the Kd [12, 42] is reported as 13800 nM. For the same sequence, the Kd [13, 42] was 1030 nM, the Kd [14, 42] was 6080 nM and the Kd [15, 42] was ≥ 48000 nM.

Work on SLADEAEVHL yielded a Kd ([6]; source organism: Homo sapiens) of 29 nM.

For SIPNFNQYEA, the Kd [6, 43] was ≥ 25000 nM.

In the case of WEILKFLIT, the Kd [10, 41] is reported as 2.09 nM, the Kd [11, 41] is reported as 2900 nM and the Kd [12, 41] is reported as 1450 nM. It also gave a Kd [13, 41] of 4360 nM, a Kd [14, 41] of 9580 nM and a Kd [15, 41] of 4990 nM.

With FDAAVSGGL the Kd [10, 43] was 5870 nM, the Kd [11, 43] was ≥ 77500 nM and the Kd [12, 43] was ≥ 78100 nM. For the same sequence, the Kd [13, 43] was ≥ 20000 nM, the Kd [14, 43] was ≥ 77900 nM and the Kd [15, 43] was ≥ 28800 nM.

FSIYSVSCF showed a Kd [18, 44] of 3.1 nM and a Kd [19, 44] of 7.64 nM.

For VENPDILRV, the Kd [10, 41] was 1270 nM, the Kd [11, 41] was 9070 nM and the Kd [12, 41] was 250 nM. The Kd [13, 41] was ≥ 21800 nM, the Kd [14, 41] was 5140 nM and the Kd [15, 41] was 474 nM.

Sequence TMVNSLTYF has a Kd [19, 38] of 0.126 nM.

Work on WITQCFLPV yielded a Kd ([6]; source organism: Homo sapiens) of 173 nM.

Sequence LLHQSSDKFV has a Kd ([5]; source organism: Homo sapiens) of 2970 nM, a Kd ([6]; source organism: Homo sapiens) of 808 nM and a Kd ([7]; source organism: Homo sapiens) of 14.4 nM. It also gave a Kd ([8]; source organism: Homo sapiens) of 78.3 nM and a Kd ([9]; source organism: Homo sapiens) of 13500 nM.

MDYLILKNL was tested, and the Kd [10, 45] was 18.5 nM, the Kd [11, 45] was ≥ 53700 nM and the Kd [12, 45] was 2740 nM. For the same sequence, the Kd [13, 45] was ≥ 33900 nM, the Kd [14, 45] was 11000 nM and the Kd [15, 45] was ≥ 33200 nM.

In the case of ITFHNQRDF, the Kd [22] is reported as ≥ 20000 nM, the Kd [23] is reported as ≥ 20000 nM and the Kd [1, 46] is reported as 5.2 nM. For the same sequence, the Kd [24] was ≥ 20000 nM, the Kd [25] was ≥ 20000 nM and the Kd [26] was ≥ 20000 nM. For the same sequence, the Kd [27] was ≥ 20000 nM, the Kd [2, 46] was 125 nM and the Kd [28] was ≥ 20000 nM. For the same sequence, the Kd [29] was ≥ 20000 nM, the Kd [30] was ≥ 20000 nM and the Kd [3, 46] was 165 nM. For the same sequence, the Kd [31] was ≥ 20000 nM, the Kd [32] was ≥ 20000 nM and the Kd [33] was 146 nM. For the same sequence, the Kd [34] was ≥ 20000 nM and the Kd [4, 46] was ≥ 20000 nM.

RLVRPFLVV was tested, and the Kd [19, 38] was 15.9 nM.

RQYMFYKIF gave a Kd [19, 44] of 0.0698 nM and a Kd [20, 44] of 19.3 nM.

ISYTYNDNW was tested, and the Kd [22] was ≥ 20000 nM, the Kd [23] was ≥ 20000 nM and the Kd [1, 46] was 1.4 nM. The Kd [24] was ≥ 20000 nM, the Kd [25] was ≥ 20000 nM and the Kd [26] was ≥ 20000 nM. For the same sequence, the Kd [2, 46] was 64.1 nM, the Kd [28] was ≥ 20000 nM and the Kd [29] was ≥ 20000 nM. The Kd [30] was ≥ 20000 nM, the Kd [3, 46] was 11.8 nM and the Kd [31] was ≥ 20000 nM. The Kd [32] was ≥ 20000 nM, the Kd [33] was ≥ 20000 nM and the Kd [34] was ≥ 20000 nM.

Reference: the Immune Epitope Database (IEDB)
